# Experimental data: patent publication US10501502B2, “Allophycocyanin alpha-subunit evolved labeling proteins (smURFPs)” (The Regents of the University of California, priority 2016, dated 2019)
# B1: smURFP: small ultra-red fluorescent protein, SEQ ID NO: 13, homodimer, covalently attaches biliverdin (protein)
# chain: MKTSEQRVNIATLLTENKKKIVDKASQDLWRRHPDLIAPGGIAFSQRDRALCLRDYGWFLHLITFCLLAGDKGPIESIGLISIREMYNSLGVPVPAMMESIRCLKEASLSLLDEEDANETAPYFDYIIKAMS
# modifications: homodimer; biliverdin chromophore; smRUFP Variant Polypeptide
# Tests used:
# [1] = Incorporation rates in vitro of BV on initially chromophore-free smURFP; type: biochemical
# Procedure: EX and EM spectra were obtained using SPEX Fluorolog fluorometer (Horiba). Absorbance spectra were obtained using UV-VIS Spectrophotometer Cary Eclipse (Varian) or UV-2700 (Shimadzu). Quantum yield was determined relative to Cy5. Incorporation rates of BV on 0.5 μM smURFP was performed by addition of smURFP to PBS alone or with 20% fetal bovine serum (FBS) and mixed by pipetting in a quartz cuvette. Chromophore was added last, mixed by pipetting, and fluorescence was recorded using SPEX Fluorolog fluorometer (Horiba). Photobleaching was characterized on bubbles of purified FP or Cy5 within mineral oil using light from a 150 W xenon arc lamp with 100% light through EX/EM=628(40)/680(30) nm for smURFP, TDsmURFP, and Cy5 or EX/EM=665 (45)/725 (50) nm for IFP 1.4 focused with a 40×, 1.2 numerical aperture C-Apochromat oil-immersion lens on a Zeiss Axiovert 200M inverted microscope. Photobleaching times were normalized to reflect an initial illumination intensity producing 1,000 photons per fluorescent molecule per second as previously described^37.
# primary cortical neurons = test: Rat primary neuronal cultures transduced with smURFP T2A mCherry lentivirus; type: cell-based; details: 15 d after transduction
# Text: smURFP-T2A-mCherry (GenBank AY678264), smURFP-T2A-mCardinal, smURFP, and mCardinal (Addgene 51311) were subcloned in a generation-two lentiviral vector with the CMV promoter for constitutive expression. Viruses were produced as described^45. The procedures for extracting cultured neurons from rat pups were approved by the UCSD Institutional Animal Care and Use Committee (IACUC, #503172R) and are consistent with the recommendations of the American Veterinary Medical Association. Primary cortical neurons were dissociated by papain from postnatal day 2 Sprague Dawley rats (n=6) of either sex and combined, plated on poly-D-lysine-coated glass-bottom culture dishes (MatTek, #P35G-0-14-C), and cultured in Neurobasal A medium+1×B27 supplement (Life Technologies)+2 mM GlutaMAX (Life Technologies)+1×penicillin-streptomycin (Fisher Scientific). Prior to fluorescence imaging, 25 μM BV was added for 10 min, removed, and washed with 2×2 ml Hank's Balanced Salt Solution (HBSS, Life Technologies)+2 g/L glucose+20 mM HEPES (pH 7.4), referred to as imaging solution. Fluorescence imaging was performed in vitro 15 d after infection using a Zeiss Axiovert 200M inverted microscope controlled by SlideBook software. FPs were imaged as follows: smURFP and TDsmURFP, EX/EM=628(40)/680(30) nm; and mCherry, EX/EM=580(20)/653(95) nm.
# [2] = 0.5 μM smURFP in PBS + 20% FBS, + 0.1 μM BV
# [3] = 0.5 μM smURFP in PBS + 20% FBS, + 0.1 μM BV (pH 9.4)
# [4] = 0.5 μM smURFP in PBS + 20% FBS, + 0.1 μM BV + 1 mM DTT
# [5] = 0.5 μM smURFP in PBS + 20% FBS, + 1 μM BV
# [6] = 0.5 μM smURFP in PBS + 20% FBS, + 1 μM BV (pH 9.4)
# [7] = 0.5 μM smURFP in PBS + 20% FBS, + 1 μM BV + 1 mM DTT
# [8] = 0.5 μM smURFP in PBS + 20% FBS, + 10 μM BV
# [9] = 0.5 μM smURFP in PBS + 20% FBS, + 10 μM BV (pH 9.4)
# [10] = 0.5 μM smURFP in PBS + 20% FBS, + 10 μM BV + 1 mM DTT
# [11] = 0.5 μM smURFP in PBS + 20% FBS, Avg. 3 Conc.
# [12] = 0.5 μM smURFP in PBS + 20% FBS, Avg. 3 Conc. (pH 9.4)
# [13] = 0.5 μM smURFP in PBS + 20% FBS, Avg. 3 Conc. + 1 mM DTT
# [14] = 0.5 μM smURFP in PBS, + 0.1 μM BV
# [15] = 0.5 μM smURFP in PBS, + 0.1 μM BV (pH 8)
# [16] = 0.5 μM smURFP in PBS, + 0.1 μM BV + 1 mM DTT
# [17] = 0.5 μM smURFP in PBS, + 1 μM BV
# [18] = 0.5 μM smURFP in PBS, + 1 μM BV (pH 8)
# [19] = 0.5 μM smURFP in PBS, + 1 μM BV + 1 mM DTT
# [20] = 0.5 μM smURFP in PBS, + 10 μM BV
# [21] = 0.5 μM smURFP in PBS, + 10 μM BV (pH 8)
# [22] = 0.5 μM smURFP in PBS, + 10 μM BV + 1 mM DTT
# [23] = 0.5 μM smURFP in PBS, Avg. 3 Conc.
# [24] = 0.5 μM smURFP in PBS, Avg. 3 Conc. (pH 8)
# [25] = 0.5 μM smURFP in PBS, Avg. 3 Conc. + 1 mM DTT
molecule,measurement,setting,value
B1,A,[1]; [2],1.1
same,T50%,[1]; [2],43 min
same,k,[1]; [2],0.016 min⁻¹
same,A,[1]; [3],0.95
same,T50%,[1]; [3],7.1 min
same,k,[1]; [3],0.097 min⁻¹
same,A,[1]; [4],0.95
same,T50%,[1]; [4],30 min
same,k,[1]; [4],0.023 min⁻¹
same,A,[1]; [5],1.1
same,T50%,[1]; [5],58 min
same,k,[1]; [5],0.012 min⁻¹
same,A,[1]; [6],0.99
same,T50%,[1]; [6],16 min
same,k,[1]; [6],0.043 min⁻¹
same,A,[1]; [7],0.95
same,T50%,[1]; [7],32 min
same,k,[1]; [7],0.022 min⁻¹
same,A,[1]; [8],1.1
same,T50%,[1]; [8],46 min
same,k,[1]; [8],0.015 min⁻¹
same,A,[1]; [9],0.99
same,T50%,[1]; [9],11 min
same,k,[1]; [9],0.063 min⁻¹
same,A,[1]; [10],0.96
same,T50%,[1]; [10],16 min
same,k,[1]; [10],0.043 min⁻¹
same,A,[1]; [11],1.1
same,T50%,[1]; [11],50 min
same,k,[1]; [11],0.014 min⁻¹
same,A,[1]; [12],0.98
same,T50%,[1]; [12],11 min
same,k,[1]; [12],0.066 min⁻¹
same,A,[1]; [13],0.95
same,T50%,[1]; [13],24 min
same,k,[1]; [13],0.029 min⁻¹
same,A,[1]; [14],1.1
same,T50%,[1]; [14],29 min
same,k,[1]; [14],0.024 min⁻¹
same,A,[1]; [15],1.1
same,T50%,[1]; [15],24 min
same,k,[1]; [15],0.029 min⁻¹
same,A,[1]; [16],1.1
same,T50%,[1]; [16],58 min
same,k,[1]; [16],0.012 min⁻¹
same,A,[1]; [17],1.1
same,T50%,[1]; [17],46 min
same,k,[1]; [17],0.015 min⁻¹
same,A,[1]; [18],1.1
same,T50%,[1]; [18],24 min
same,k,[1]; [18],0.029 min⁻¹
same,A,[1]; [19],1.1
same,T50%,[1]; [19],63 min
same,k,[1]; [19],0.011 min⁻¹
same,A,[1]; [20],1.1
same,T50%,[1]; [20],46 min
same,k,[1]; [20],0.015 min⁻¹
same,A,[1]; [21],1.1
same,T50%,[1]; [21],22 min
same,k,[1]; [21],0.032 min⁻¹
same,A,[1]; [22],1.1
same,T50%,[1]; [22],46 min
same,k,[1]; [22],0.015 min⁻¹
same,A,[1]; [23],1.0
same,T50%,[1]; [23],39 min
same,k,[1]; [23],0.018 min⁻¹
same,A,[1]; [24],1.1
same,T50%,[1]; [24],2 min
same,k,[1]; [24],0.030 min⁻¹
same,A,[1]; [25],1.1
same,T50%,[1]; [25],53 min
same,k,[1]; [25],0.013 min⁻¹
same,chromophore maturation or attachment t50%,[1]; BV attachment,39^ min
same,lysosomal aggregation in neuronal culture,primary cortical neurons,not seen
